Substrate in the data set “purified protein”: Nc1ncnc2c1ncn2[C@@H]1O[C@H](COP(=O)(O)OP(=O)(O)O)[C@@H](O)[C@H]1O
The data set is described as follows: purified protein. As to conditions: 25 °C, pH 8.5, 1.6 mM PRPP, 15 mM MgCl2, 100 mM KCl, unlabelled enzyme. The format is biochemical, Acinetobacter baumannii.

Substrate in data set [1]: O=P(O)(O)OC[C@H]1O[C@H](OP(=O)(O)OP(=O)(O)O)[C@H](O)[C@@H]1O
The data set is described as follows: purified protein, by the assay type. As to conditions: 25.0 °C. As for the experimental part: To assess the effect of increased AbHisGS mass in catalysis, we purified AbHisGS from heterologous expression in M9 medium supplemented with different isotopes to produce AbHisGS carrying natural isotope abundance (unlabelled AbHisGS), [^15N]AbHisGS, [^13C,^15N]AbHisGS, and [^2H,^13C,^15N]AbHisGS (the ^2H is incorporated in non-exchangeable positions) (Supplementary Fig. 1). […] AbATPPRT substrate saturation curves at 25 °C using unlabelled AbHisGS produced from heterologous expression in LB medium by our published protocol[30] and unlabelled AbHisGS generated here from expression in M9 medium and in M9 with high cell density induction[47] […] S5 Supplementary Figure 4 Substrate saturation curves for unlabelled AbATPPRT with AbHisGS purified from cultures grown in M9 and M9 with high cell density compared with previously published data (reproduced here) for unlabelled AbATPPRT with AbHisGS purified from cultures grown in LB. For the M9 and M9 high cell density curves, all data points are shown for two independent measurements, except for the previously published LB curves, where data are the mean of two independent measurements. […] Kinetics and thermal denaturation data were analysed by the nonlinear regression function of SigmaPlot 14.0 (SPSS Inc.). […] The concentration of ATPPRT at any concentration of AbHisGS and AbHisZ was calculated according to Eq. (4). […]

Substrate in data set [2]: O=P(O)(O)OC[C@H]1O[C@H](OP(=O)(O)OP(=O)(O)O)[C@H](O)[C@@H]1O
In words: purified protein, by the assay type. As to conditions: 25.0 °C. As for the experimental part:
(§1) Kinetics and thermal denaturation data were analysed by the nonlinear regression function of SigmaPlot 14.0 (SPSS Inc.). Thermal denaturation data were fitted to Eq. (1). Substrate saturation curves at a fixed concentration of the co-substrate were fitted to Eq. (2). Initial rate data at varying concentrations of HisZ were fitted to Eq. (3). The concentration of ATPPRT at any concentration of AbHisGS and AbHisZ was calculated according to Eq. (4). Histidine dose-response data were fitted to Eq. (5). Single-turnover data with WT-AbATPPRT isotopologues were fitted to Eq. (6). Plots of kcat ratios against relative viscosity were fitted to Eq. (7). Temperature-rate profile for AbHisGS was fitted to Eq. (8). Single-turnover data with R70A-AbATPPRT isotopologues were fitted to Eq. (9). In Eqs. […] While kcats for [^13C,^15N]AbHisGS and [^2H,^13C,^15N]AbHisGS are marginally lower than for unlabelled AbHisGS and [^15N]AbHisGS, the overlapping nature of most data points in Fig. 1c disagrees with distinguishable heavy-enzyme kinetic isotope effects on kcat (^HEkcat). […] This was further probed by pre-steady-state kinetics under multiple-turnover conditions. The AbHisGS reaction had been shown not to have a burst of product formation, which is reproduced here for unlabelled AbHisGS, whose traces overlap with those for [^2H,^13C,^15N]AbHisGS (Supplementary Fig. 5). […]
This is another data set of the same source.

Substrate in data set [3]: Nc1ncnc2c1ncn2[C@@H]1O[C@H](COP(=O)(O)OP(=O)(O)OP(=O)(O)O)[C@@H](O)[C@H]1O
The data set is described as follows: purified protein, by the assay type. As to conditions: 25.0 °C. The protocol:
(§2) Kinetics and thermal denaturation data were analysed by the nonlinear regression function of SigmaPlot 14.0 (SPSS Inc.). Thermal denaturation data were fitted to Eq. (1). Substrate saturation curves at a fixed concentration of the co-substrate were fitted to Eq. (2). Initial rate data at varying concentrations of HisZ were fitted to Eq. (3). The concentration of ATPPRT at any concentration of AbHisGS and AbHisZ was calculated according to Eq. (4). Histidine dose-response data were fitted to Eq. (5). Single-turnover data with WT-AbATPPRT isotopologues were fitted to Eq. (6). Plots of kcat ratios against relative viscosity were fitted to Eq. (7). Temperature-rate profile for AbHisGS was fitted to Eq. (8). Single-turnover data with R70A-AbATPPRT isotopologues were fitted to Eq. (9). In Eqs. […] While kcats for [^13C,^15N]AbHisGS and [^2H,^13C,^15N]AbHisGS are marginally lower than for unlabelled AbHisGS and [^15N]AbHisGS, the overlapping nature of most data points in Fig. 1c disagrees with distinguishable heavy-enzyme kinetic isotope effects on kcat (^HEkcat). […] This was further probed by pre-steady-state kinetics under multiple-turnover conditions. The AbHisGS reaction had been shown not to have a burst of product formation, which is reproduced here for unlabelled AbHisGS, whose traces overlap with those for [^2H,^13C,^15N]AbHisGS (Supplementary Fig. 5). S5 Supplementary Figure 4 Substrate saturation curves for unlabelled AbATPPRT with AbHisGS purified from cultures grown in M9 and M9 with high cell density compared with previously published data (reproduced here) for unlabelled AbATPPRT with AbHisGS purified from cultures grown in LB. For the M9 and M9 high cell density curves, all data points are shown for two independent measurements, except for the previously published LB curves, where data are the mean of two independent measurements. Lines are best fit of the data to equation (2): solid line for M9 high cell density curves, long-dashed line for M9 curves, and short-dashed line for previously published LB curves. […]

Substrate in data set [4]: Nc1ncnc2c1ncn2[C@@H]1O[C@H](COP(=O)(O)OP(=O)(O)O)[C@@H](O)[C@H]1O
In words: purified protein, by the assay type. As to conditions: 25.0 °C. The protocol: as §2

Substrate in data set [5]: O=P(O)(O)OC[C@H]1O[C@H](OP(=O)(O)OP(=O)(O)O)[C@H](O)[C@@H]1O
In words: purified protein, by the assay type. As to conditions: 25.0 °C. The protocol: as §2
The source holds these as a separate data set.

Substrate in data set [6]: Nc1ncnc2c1ncn2[C@@H]1O[C@H](COP(=O)(O)OP(=O)(O)OP(=O)(O)O)[C@@H](O)[C@H]1O
In words: purified protein, by the assay type. As to conditions: 25.0 °C. As for the experimental part: as §1
The source holds these as a separate data set.

The Km is the substrate concentration at which the rate is half of its maximum. The kcat is the number of substrate molecules converted per active site and unit of time at saturation.

Values joined by “and” are separate entries in the source; they are usually repeats but may differ in a detail not shown here. Equal entries are not always repeated.

B1: AbATPPRT (Acinetobacter baumannii ACICU) (protein)
chain: MNDVRNDDPNFNVMGNFDHGLTLALSKGRILKETLPLLATAGINLLEDPEKSRKLIFPTTHKQVRILILRASDVPTYVENGAADLGVAGKDVLMEHGAQHVYELLDLQIAKCKLMTAGKVGMERPKGRLKIATKYVNLTRQYYASLGEQVDVIKLYGSMELAPLVGLGDYIVDVVDTGNTLRANGLEPLEEICKVSSRLIVNKASFKRKQVLLNPIISQLEQAVQSR
notes: hetero-octameric holoenzyme (two HisGS dimers flanking a HisZ tetramer) reconstituted in vitro from separately purified recombinant AbHisGS (E. coli BL21(DE3)) and AbHisZ; unlabelled (natural isotope abundance)
Consider B1, for which the Michaelis-Menten constant (Km) in the data set “purified protein” is 350 ± 40 µM; in data set [1], 96 µM; in data set [2] it was 80 µM and 85 µM; in data set [3], 130 ± 20 µM; in data set [4] it was 300 µM and 280 µM; in data set [5], 120 ± 10 µM. Besides, in data set [6], the Km is 170 ± 30 µM and 210 ± 30 µM. For the same protein, the kcat (in the data set “purified protein”; in data set [1]) was 16.6 ± 0.4 s⁻¹ throughout.
